Experimental data from EP4137518A1 (Inhibrx, Inc., dated 2023).

Key:
[1] = target: T1, human CD47, cell surface (Raji, CCRF-CEM, Daudi cells) (human, UniProt Q08722 19-323); assay: flow cytometry on Raji cells; apparent KD from non-linear fit of median fluorescence intensities
T1 construct: Endogenous CD47 on human cell lines; also called cell surface CD47; endogenous (cell surface) form of CD47

[2] = target: T1, human CD47, cell surface (Raji, …); assay: summary of the binding and blocking assays

Row | Binder | Kd [1] [nM] | binding result [2]
1 | B6H12 (antibody, V domains shown) VH: EVQLVESGGDLVKPGGSLKLSCAASGFTFSGYGMSWVRQTPDKRLEWVATITSGGTYTYYPDSVKGRFTISRDNAKNTLYLQIDSLKSEDTAIYFCARSLAGNAMDYWGQGTSVTVSS VL: DIVMTQSPATLSVTPGDRVSLSCRASQTISDYLHWYQQKSHESPRLLIKFASQSISGIPSRFSGSGSGSDFTLSINSVEPEDVGVYYCQNGHGFPRTFGGGTKLEIK | 3.79 | –
2 | 9E4 antibody (murine) (antibody, mouse IgG1, V domains shown) VH: EVQLRQSGPELVKPGASVKISCKASGYSFTDYYMYWVKQSRVRSLAWIGRINPYTGATGYDQNFKDKASLIVDKSSSTAYMELRSLTSEDSAVYYCARGRNRYDGWFAYWGQGTLVTV VL: EIQMTQTTSSLSASLGDRVTISCRASQDISNYLNWYQQKPDGTVKLLIYYTSRLHSGVPSRFSGSGSGTDYSLTISNLDQEDIATYFCQQGNALPPTFGGGTNLEIK | – | binds
